The values that follow come from patent US20210230263A1 (BIOATLA, published 2021).

Where a chain is given by its changes, count along the chain named. Numbers in names are those of the source.

The target of assay [1] is T1, human IL-22 (human, UniProt Q9GZX6 34-179).
T1 construct: also called hIL-22; hIL22
T1 sequence (looked up): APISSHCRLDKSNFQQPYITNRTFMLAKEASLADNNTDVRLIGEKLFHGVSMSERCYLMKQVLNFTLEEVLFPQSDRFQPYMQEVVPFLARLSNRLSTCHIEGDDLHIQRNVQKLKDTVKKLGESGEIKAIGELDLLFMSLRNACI
The assay can be described thus: SPR (SierraSensors SPR-2), hIL-22 immobilized on chip, antibody injected, Langmuir 1:1 model.
Procedure: (§1) The affinity of the 10 antibodies of Table 1 was measured by Surface Plasma Resonance (SPR) using a capture assay on a SPR-2 instrument (SierraSensiors, Hamburg, Germany). The antigens hIL-22 and mIL-22 were immobilized on chips. The running buffer for the assay contained 10 mM HEPES with a pH of 7.4, 500 mM NaCl, and 0.05% TWEEN® 20. […] The off-rate was measured for 6 minutes. Binding constants were calculated using the curve fitting software Analyzer2 (Sierra Sensors). Sensorgrams were analyzed with the instrument specific software and with BIAevaluation 4.1 software. The binding data were analyzed using the Langmuir 1:1 model (human IL-22) or a model for a heterogeneous ligand (mouse IL-220).

The target in a further assay is T2, human IL26 (human, UniProt Q9NPH9 22-171, limits assumed).
T2 sequence (looked up): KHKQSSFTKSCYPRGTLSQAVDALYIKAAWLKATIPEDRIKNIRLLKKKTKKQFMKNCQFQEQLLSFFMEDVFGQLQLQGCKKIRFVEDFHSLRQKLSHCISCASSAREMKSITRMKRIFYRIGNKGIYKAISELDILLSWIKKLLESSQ
Kind of assay: ELISA on coated antigen (1 ug/ml), anti-hIgG-HRP, OD450. (An ELISA detects its analyte on a solid surface through an enzyme-linked reagent.)

For a further assay, the target named is T3, human IL20 (human, UniProt Q9NYY1 25-176).
T3 sequence (looked up): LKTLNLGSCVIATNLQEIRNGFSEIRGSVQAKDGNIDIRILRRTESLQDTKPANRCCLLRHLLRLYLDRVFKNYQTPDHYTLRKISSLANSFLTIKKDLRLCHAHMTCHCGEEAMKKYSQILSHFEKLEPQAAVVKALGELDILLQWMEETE
Described as above.

The target in a further assay is T4, human IL19 (human, UniProt Q9UHD0 25-177).
T4 sequence (looked up): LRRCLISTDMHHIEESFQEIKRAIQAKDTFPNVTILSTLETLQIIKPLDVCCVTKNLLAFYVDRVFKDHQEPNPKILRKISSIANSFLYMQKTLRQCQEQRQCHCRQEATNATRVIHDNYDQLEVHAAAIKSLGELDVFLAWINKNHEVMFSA
The description is as above.

The target of another assay is INF-λ1 (Homo sapiens (Human), UniProt Q8IU54 20-200). The description is as above.
Sequence of INF-λ1 (Q8IU54 20-200 limits assumed): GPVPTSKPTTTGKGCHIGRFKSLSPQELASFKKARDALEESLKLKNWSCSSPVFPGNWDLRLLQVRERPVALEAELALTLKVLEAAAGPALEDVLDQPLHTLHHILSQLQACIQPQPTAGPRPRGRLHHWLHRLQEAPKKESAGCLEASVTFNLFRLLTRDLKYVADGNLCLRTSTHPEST
Another assay deals with T5, INF-γ (Homo sapiens (Human), UniProt P01579 24-161).
T5 sequence: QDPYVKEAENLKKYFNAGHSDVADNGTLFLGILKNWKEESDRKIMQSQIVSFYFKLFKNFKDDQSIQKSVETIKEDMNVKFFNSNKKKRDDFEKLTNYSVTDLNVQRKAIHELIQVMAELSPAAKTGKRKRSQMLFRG
Described as above.

The target in a further assay is T6, human IL24 (human, UniProt Q13007 52-206, limits assumed).
T6 sequence (looked up): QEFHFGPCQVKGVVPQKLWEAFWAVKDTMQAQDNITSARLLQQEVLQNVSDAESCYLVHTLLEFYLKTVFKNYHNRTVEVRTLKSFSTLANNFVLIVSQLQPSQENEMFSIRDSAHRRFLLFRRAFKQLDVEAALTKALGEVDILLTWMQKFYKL
Described as above.

For assay [2], the target named is IL-22 (CXCL1 assay in HT29 cells). The assay can be described thus: cell-based or functional assay.
Assay [3] concerns the target T7, mouse IL-22 (mouse, UniProt Q9JJY9 34-179).
T7 construct: also called mIL-22; mIL22
T7 sequence (looked up): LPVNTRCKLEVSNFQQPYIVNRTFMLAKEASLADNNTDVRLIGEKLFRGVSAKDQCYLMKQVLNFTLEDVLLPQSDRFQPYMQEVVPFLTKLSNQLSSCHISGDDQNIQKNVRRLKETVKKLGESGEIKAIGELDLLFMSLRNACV
The assay can be described thus: SPR (SierraSensors SPR-2), mIL-22 immobilized on chip, antibody injected, heterogeneous ligand model.
Procedure: as §1

The target in assay [4] is T7, mouse IL-22. The assay can be described thus: affinity ELISA and titration ELISA, CPE library screen.
Source text: (§2) Specifically, the CPE™ variants were screened by affinity ELISA for mouse IL-22 (mIL-22) binding affinity. […] The primary CPE™ hits were re-arrayed, re-transfected, and screened again by affinity ELISA and also by titration ELISA using both mIL-22 and human IL-22 (hIL-22) for antibodies that bind to both mIL-22 and hIL-22.
Assay [5] deals with T1, human IL-22. Described as above.
Source text: as §2
Assay [6] addresses T7, mouse IL-22. Kind of assay: affinity ELISA on mIL22, mAb concentration at 50% max signal (second row of the same name).
For assay [7], the target named is T1, human IL-22. Kind of assay: affinity ELISA on hIL22, mAb concentration at 50% max signal.
Assay [8] has as its target T7, mouse IL-22. The assay can be described thus: affinity ELISA on mIL22, mAb concentration at 50% max signal.
In assay [9] the target is T1, human IL-22. Kind of assay: affinity ELISA on hIL22, mAb concentration at 50% max signal (second row of the same name).
In assay [10] the target is T7, mouse IL-22. The assay can be described thus: cell-based or functional assay.
In assay [11] the target is T1, human IL-22. The assay can be described thus: cell-based or functional assay.
Assay [12] addresses IL-22 (CXCL1 assay in HT29 cells). Kind of assay: cell-based or functional assay. The source holds these as a separate data set.

Procedure for INF-γ: (§3) Plates were coated with 100 μl antigens at a concentration of 1 μg/ml. The plates were exposed to the antibodies at a concentration of 100 ng/ml. The bound antibodies were detected with anti-hIgG-HRP by the ELISA assay.
Procedure for INF-λ1: as §3
Procedure for human IL19: as §3
Procedure for human IL20: as §3
Procedure for human IL24: as §3
Procedure for human IL26: as §3

B1: CPE-LC-E049K (antibody, V domains shown)
VH: QVQLVQSGAEVKKPGASVKVSCKASGYIFTSYWIHWIRQPPGKGLEWIGRIYPGTGNTYYNEKFKGRVTISADKSISTAYLQWSSLKASDTAMYYCARSYDSSCAYWGQGTLVTVSS
VL: AIQLTQSPSSLSASVGDRVTITCSASSSVSYMHWYLQKPGQSPQLLIYKTSKLASGVPSRFSGSGSGTDFTFTISSLEAEDAATYYCQQWSSNPYITFGQGTKVEIKR
notes: One of the mutant antibodies of the CPE library made from hum10 (CDR positions substituted); built here as hum10 with E49K in the light chain, read from its name
For the molecule B1, the equilibrium dissociation constant (Kd) with human IL-22 [1] was determined as 0.156 nM; in the assay with mouse IL-22 [3] it was 40.2 nM. Besides, the results for the koff in the assay with human IL-22 [1] and in the assay with mouse IL-22 [3] were 5.93e-05 s⁻¹ and 0.00137 s⁻¹, respectively. For the same molecule, the binding result with human IL26, with human IL20, with human IL19, with INF-λ1, with INF-γ and in the assay with human IL24 was “no binding (tested: 100 ng/ml)” each time. The “IC50 (parameter C of the log-logit fit y=(A-D)/(1+(x/C)^B)+D) of inhibition of IL-22-induced CXCL1 production in HT29 cells” value in [2] turned out to be 124 ng/ml.

B2: CPS-10 (antibody, V domains shown)
VH: B1 VH with T30R, N57R, S102Y, C104V
VL: B1 VL with K49E, A54L
notes: Mutant of humanized hum10, whole antibody expressed in CHO cells; also called LC-05 / HC-25
On to B2, for which the binding result with mouse IL-22 [4] and with human IL-22 [5] was “binds” in each case.

B3: CPS-14 (antibody, V domains shown)
VH: B1 VH with N57R, E62R, S102Y, C104V
VL: B1 VL with K49E, S51R
notes: Mutant of humanized hum10, whole antibody expressed in CHO cells; also called LC-04 / HC-31
As to B3, the values for the Kd in the assay with human IL-22 [1] and with mouse IL-22 [3] were 0.0314 nM and 4.8 nM, respectively. The koff was found to be 3.55e-05 s⁻¹ in the assay with human IL-22 [1] and 0.00123 s⁻¹ with mouse IL-22 [3]. Also, the binding result with human IL26, in the assay with human IL20, with human IL19, in the assay with INF-λ1, with INF-γ and with human IL24 was “no binding (tested: 100 ng/ml)” in each case. For the same molecule, the “IC50 (parameter C of the log-logit fit y=(A-D)/(1+(x/C)^B)+D) of inhibition of IL-22-induced CXCL1 production in HT29 cells” value in [2] worked out at 44.2 ng/ml.

B4: CPS-04 (antibody, V domains shown)
VH: B1 VH with T30R, E62R, C104V
VL: B1 VL with A54L
notes: Mutant of humanized hum10, whole antibody expressed in CHO cells; also called LC-07 / HC-09
B4: the Kd in the assay with human IL-22 [1] is 0.0292 nM; with mouse IL-22 [3], 4.23 nM. For the same molecule, the koff was found to be 3.74e-05 s⁻¹ with human IL-22 [1] and 0.00118 s⁻¹ with mouse IL-22 [3]. The binding result with human IL26, in the assay with human IL20, in the assay with human IL19, with INF-λ1, in the assay with INF-γ and in the assay with human IL24 was “no binding (tested: 100 ng/ml)” throughout. For the same molecule, the “IC50 (parameter C of the log-logit fit y=(A-D)/(1+(x/C)^B)+D) of inhibition of IL-22-induced CXCL1 production in HT29 cells” value in [2] was found to be 51 ng/ml.

B5: CPS-16 (antibody, V domains shown)
VH: B1 VH with T30R, E62R, D101M, S102Y, C104V
VL: B1 VL
notes: Mutant of humanized hum10, whole antibody expressed in CHO cells; also called LC-03 / HC-49
As to B5, the binding result with mouse IL-22 [4] and with human IL-22 [5] was “binds” throughout.

B6: CPS-09 (antibody, V domains shown)
VH: B1 VH with T30R, N57R, S102Y, C104V
VL: B1 VL with K49E, S51R
notes: Mutant of humanized hum10, whole antibody expressed in CHO cells; also called CPS-hit-09; CSP09
Turning to B6, the figures for the Kd in the assay with human IL-22 [1] and in the assay with mouse IL-22 [3] were 0.0253 nM and 3.96 nM, respectively. Further, the off-rate (koff) with human IL-22 [1] came to 2.18e-05 s⁻¹; with mouse IL-22 [3], 0.000768 s⁻¹. The “IC50 (parameter C of the log-logit fit y=(A-D)/(1+(x/C)^B)+D) of inhibition of IL-22-induced CXCL1 production in HT29 cells” value in assay [2] is 61.6 ng/ml. In addition, the concentration for a half-maximal effect (EC50) in the assay with mouse IL-22 [6] is 0.034 nM; with human IL-22 [7], 0.081 nM; with mouse IL-22 [8], 0.141 nM; with human IL-22 [9], 0.074 nM. Besides, the “Acute Phase response 5 µg mIL22 and 5 µg mAb (% signal reduction), molar ratio mIL22: mAb = 4.5:1 (serum amyloid in mice)” value with mouse IL-22 [10] amounted to 73%. For the same molecule, the “Acute Phase response 5 µg mIL22 and 50 µg mAb (% signal reduction), molar ratio of mIL22:mAb = 1:2.2 (serum amyloid in mice)” value with mouse IL-22 [10] stood at 42%. In the assay with human IL-22 [11], the “STAT3 Phosphorylation; hIL22 % inhibition mAb [0.73 nM]” value amounted to 12.1%. Further, the “CXCL-1 Assay (IC50 [pM]) double data points 02122015” value in assay [12] came to 204 pM. In addition, in assay [12], the “CXCL-1 Assay (IC50 [pM]) single data points 02052015” value amounted to 411 pM.

B7: CPS-20 (antibody, V domains shown)
VH: B1 VH with T30R, E62R, D101M, C104V, A105G
VL: B1 VL with Y31K, K49E, S51R
notes: Mutant of humanized hum10, whole antibody expressed in CHO cells; also called LC-11 / HC-50
For the molecule B7, the binding result in the assay with mouse IL-22 [4] and in the assay with human IL-22 [5] was “binds” each time.

B8: CPS-11 (antibody, V domains shown)
VH: B1 VH with T30R, N57R, S102Y, C104V
VL: B1 VL with S51R
notes: Mutant of humanized hum10, whole antibody expressed in CHO cells; also called LC-06 / HC-25
Turning to B8, the binding result in the assay with mouse IL-22 [4] and in the assay with human IL-22 [5] was “binds” in each case.

B9: CPS-17 (antibody, V domains shown)
VH: B1 VH with T30R, E62R, D101M, S102Y, C104V
VL: B1 VL with K49E, S51R
notes: Mutant of humanized hum10, whole antibody expressed in CHO cells; also called LC-04 / HC-49
With B9, the Kd in the assay with human IL-22 [1] turned out to be 0.0522 nM; in the assay with mouse IL-22 [3], 6.27 nM. The off-rate constant (koff) in the assay with human IL-22 [1] was 6.94e-05 s⁻¹; with mouse IL-22 [3], 0.00158 s⁻¹. Besides, the binding result in the assay with human IL26, with human IL20, in the assay with human IL19, with INF-λ1, in the assay with INF-γ and in the assay with human IL24 was “no binding (tested: 100 ng/ml)” in each case. Besides, the “IC50 (parameter C of the log-logit fit y=(A-D)/(1+(x/C)^B)+D) of inhibition of IL-22-induced CXCL1 production in HT29 cells” value in assay [2] amounted to 155 ng/ml.

B10: CPS-01 (antibody, V domains shown)
VH: B1 VH with T30R, N57R, C104V
VL: B1 VL
notes: Mutant of humanized hum10, whole antibody expressed in CHO cells; also called LC-03 / HC-08
As to B10, the binding result with mouse IL-22 [4] and in the assay with human IL-22 [5] was “binds” in each case.

For orientation: Kd means the equilibrium constant for the complex coming apart. The low end stands for a tighter complex, the high end for a looser complex. For orientation: koff means a measure of how fast the partners let go of each other. A lower koff goes with slow dissociation. As a reminder, the EC50 is the concentration at which the effect is half-maximal.
